Source: PMC7469880

Molecular target: FIRΔexon2-FLAG (splice variant of FIR lacking exon 2, FLAG-tagged) (human)
Experiment: co-IP

amount detected relative to the FIR–FLAG complex (1.0) | Substance
0.35 | SAP130 (subunit of splicing factor 3b), endogenous in HeLa (from UniProt Q15393 1-1217) (natural protein)
0.1 | SAP155 (subunit of splicing factor 3b), endogenous in HeLa (from UniProt O75533 1-1304) (natural protein)
